Patent US20110124071A1, “METHODS AND COMPOSITIONS FOR PRODUCING HYDROCARBONS” (priority 2009, published 2011)

B1: Synechocystis sp. PCC6803 sll0208: Synechocystis sp. PCC6803 putative fatty aldehyde decarbonylase (SEQ ID NO: 3) (protein, listed as Synechocystis sp.)
chain: MPELAVRTEFDYSSEIYKDAYSRINAIVIEGEQEAYSNYLQMAELLPEDKEELTRLAKMENRHKKGFQACGNNLQVNPDMPYAQEFFAGLHGNFQHAFSEGKVVTCLLIQALIIEAFAIAAYNIYIPVADDFARKITEGVVKDEYTHLNYGEEWLKANFATAKEELEQANKENLPLVWKMLNQVQGDAKVLGMEKEALVEDFMISYGEALSNIGFSTREIMRMSSYGLAGV
B2: alr5283: Nostoc sp. PCC7210 putative decarbonylase (SEQ ID NO: 7) (protein, listed as Nostoc sp.)
chain: MQQVAADLEIDFKSEKYKDAYSRINAIVIEGEQEAYENYIQLSQLLPDDKEDLIRLSKMESRHKKGFEACGRNLQVSPDMEFAKEFFAGLHGNFQKAAAEGKIVTCLLIQSLIIECFAIAAYNIYIPVADDFARKITEGVVKDEYSHLNFGEVWLQKNFAQSKAELEEANRHNLPIVWKMLNQVADDAAVLAMEKEALVEDFMIQYGEALSNIGFTTRDIMRMSAYGLTAA
B3: AM1—4041: Acaryochloris marina MBIC11017 putative decarbonylase (SEQ ID NO: 9) (protein, listed as Acaryochloris marina)
chain: MPQTQAISEIDFYSDTYKDAYSRIDGIVIEGEQEAHENYIRLGEMLPEHQDDFIRLSKMEARHKKGFEACGRNLKVTCDLDFARRFFSDLHKNFQDAAAEDKVPTCLVIQSLIIECFAIAAYNIYIPVADDFARKITESVVKDEYQHLNYGEEWLKAHFDDVKAEIQEANRKNLPIVWRMLNEVDKDAAVLGMEKEALVEDFMIQYGEALSNIGFSTGEIMRMSAYGLVAA
B4: RS9917—12945: Synechococcus sp. RS9917 putative decarbonylase (SEQ ID NO: 25) (protein, listed as Synechococcus sp.)
chain: MTQLDFASAAYREAYSRINGVVIVGEGLANRHFQMLARRIPADRDELQRLGRMEGDHASAFVGCGRNLGVVADLPLARRLFQPLHDLFKRHDHDGNRAECLVIQGLIVECFAVAAYRHYLPVADAYARPITAAVMNDESEHLDYAETWLQRHFDQVKARVSAVVVEALPLTLAMLQSLAADMRQIGMDPVETLASFSELFREALESVGFEAVEARRLLMRAAARMV
B5: gll3146: Gloeobacter violaceus PCC7421 putative decarbonylase (SEQ ID NO: 15) (protein, listed as Gloeobacter violaceus)
chain: VNRTAPSSAALDYRSDTYRDAYSRINAIVLEGEREAHANYLTLAEMLPDHAEALKKLAAMENRHFKGFQSCARNLEVTPDDPFARAYFEQLDGNFQQAAAEGDLTTCMVIQALIIECFAIAAYNVYIPVADAFARKVTEGVVKDEYTHLNFGQQWLKERFVTVREGIERANAQNLPIVWRMLNAVEADTEVLQMDKEAIVEDFMIAYGEALGDIGFSMRDVMKMSARGLASAPRQ
B6: Synechocystis sp. PCC6803 sll0209: Synechocystis sp. PCC6803 acyl-ACP reductase (SEQ ID NO: 68) (protein, listed as Synechocystis sp.)
chain: MFGLIGHLTSLEHAQAVAEDLGYPEYANQGLDFWCSAPPQVVDNFQVKSVTGQVIEGKYVESCFLPEMLTQRRIKAAIRKILNAMALAQKVGLDITALGGFSSIVFEEFNLKQNNQVRNVELDFQRFTTGNTHTAYVICRQVESGAKQLGIDLSQATVAVCGATGDIGSAVCRWLDSKHQVKELLLIARNRQRLENLQEELGRGKIMDLETALPQADIIVWVASMPKGVEIAGEMLKKPCLIVDGGYPKNLDTRVKADGVHILKGGIVEHSLDITWEIMKIVEMDIPSRQMFACFAEAILLEFEGWRTNFSWGRNQISVNKMEAIGEASVKHGFCPLVAL
B7: PMM0532: Prochlorococcus marinus CCMP1986 putative decarbonylase (SEQ ID NO: 19) (protein, listed as Prochlorococcus marinus)
chain: MQTLESNKKTNLENSIDLPDFTTDSYKDAYSRINAIVIEGEQEAHDNYISLATLIPNELEELTKLAKMELKHKRGFTACGRNLGVQADMIFAKEFFSKLHGNFQVALSNGKTTTCLLIQAILIEAFAISAYHVYIRVADPFAKKITQGVVKDEYLHLNYGQEWLKENLATCKDELMEANKVNLPLIKKMLDQVSEDASVLAMDREELMEEFMIAYQDTLLEIGLDNREIARMAMAAIV
B8: RS991709941: Synechococcus sp. RS9917 putative decarbonylase (SEQ ID NO: 23) (protein, listed as Synechococcus sp.)
chain: MPTLETSEVAVLEDSMASGSRLPDFTSEAYKDAYSRINAIVIEGEQEAHDNYIALGTLIPEQKDELARLARMEMKHMKGFTSCGRNLGVEADLPFAKEFFAPLHGNFQAALQEGKVVTCLLIQALLIEAFAISAYHIYIPVADPFARKITEGVVKDEYTHLNYGQEWLKANFEASKDELMEANKANLPLIRSMLEQVAADAAVLQMEKEDLIEDFLIAYQEALCEIGFSSRDIARMAAAALAV

Tests used:
Assay type in all cases: cell-based
[1] = test system: E. coli MG1655 ΔfadE lacZ::Ptrc ′tesA-fadD; experiment: Heterologous expression in a fatty acyl-CoA-producing E. coli strain, GC-MS; settings: for conversion of fatty aldehydes into alkanes/alkenes: decarbonylase coexpressed with acyl-ACP reductase in acyl-CoA-producing strain
Source text: The genomic DNA encoding Acaryochloris marina MBIC11017 AM1—4041 (YP—001518340; putative fatty aldehyde decarbonylase) (SEQ ID NO: 9) was synthesized and cloned into the NdeI and XhoI sites of vector OP-183 (pACYC derivative) under the control of the Ptrc promoter. The resulting construct was cotransformed with OP80-PCC7942—1594 into E. coli MG1655 ΔfadE lacZ::Ptrc ′tesA-fadD. This strain expresses a cytoplasmic version of the E. coli thioesterase, ′TesA, and the E. coli acyl-CoA synthetase, FadD, under the control of the Ptrc promoter, and therefore produces fatty acyl-CoAs. The cells were grown at 37° C. in M9 minimal media supplemented with 100 μg/ml spectinomycin and 100 μg/ml carbenicillin. The cells were cultured and extracted as in Example 3 and analyzed by GC-MS as described in Example 1.
The genomic DNA encoding Synechocystis sp. PCC6803 sll0208 (NP_442147; putative fatty aldehyde decarbonylase) (SEQ ID NO: 3) was synthesized and cloned into the NdeI and XhoI sites of vector OP-183 (pACYC derivative) under the control of the Ptrc promoter. The genomic DNA encoding Synechocystis sp. PCC6803 sll0209 (NP_442146; acyl-ACP reductase) (SEQ ID NO: 68) was synthesized and cloned into the NcoI and EcoRI sites of vector OP-183 (pACYC derivative) under the control of the Ptrc promoter. The resulting constructs were cotransformed with into E. coli MG1655 ΔfadE lacZ::Ptrc ′tesA-fadD. This strain expresses a cytoplasmic version of the E. coli thioesterase, ′TesA, and the E. coli acyl-CoA synthetase, FadD, under the control of the Ptrc promoter, and therefore produces fatty acyl-CoAs. The cells were grown at 37° C. in M9 minimal media supplemented with 100 μg/ml spectinomycin and 100 μg/ml carbenicillin. The cells were cultured and extracted as in Example 3 and analyzed by GC-MS as described in Example 26.

[2] = test system: E. coli MG1655 ΔfadD lacZ::Ptrc-′tesA; experiment: Heterologous expression in a fatty aldehyde-producing E. coli strain with MSMEG—5739, GC-MS; settings: decarbonylase coexpressed with carboxylic acid reductase MSMEG—5739
E. coli MG1655 = experiment: Coexpression of putative decarbonylase with S. elongatus PCC7942 orf1594 in E. coli, GC-MS of extracts; settings: coexpressed with S. elongatus PCC7942 orf1594 in E. coli MG1655, M9 minimal media
Procedure: After a 1 μl splitless injection (inlet temperature held at 300° C.) onto the GC/MS column, the oven was held at 100° C. for 3 mins. The temperature was ramped up to 320° C. at a rate of 20° C./min. The oven was held at 320° C. for an additional 5 min. The flow rate of the carrier gas helium was 1.3 ml/min. The MS quadrapole scanned from 50 to 550 m/z. Retention times and fragmentation patterns of product peaks were compared with authentic references to confirm peak identity.
The genomic DNA encoding Synechococcus elongatus PCC7942 orf1594 (YP—400611; putative aldehyde-generating enzyme) (SEQ ID NO: 65) was amplified and cloned into the NcoI and EcoRI sites of vector OP-80 (pCL1920 derivative) under the control of the Ptrc promoter. The resulting construct (“OP80-PCC7942—1594”) was transformed into E. coli MG1655 and the cells were grown at 37° C. in M9 minimal media with 1% (w/v) glucose as carbon source and supplemented with 100 μg/ml spectinomycin. When the culture reached OD600 of 0.8-1.0, it was induced with 1 mM IPTG and cells were grown for an additional 18-20 h at 37° C. Cells from 0.5 ml of culture were extracted with 0.5 ml of ethyl acetate. After sonication for 60 min, the sample was centrifuged at 15,000 rpm for 5 min. The solvent layer was analyzed by GC-MS as described in Example 1.
The genomic DNA encoding Synechococcus elongatus PCC7942 orf1593 (YP—400610; putative decarbonylase) (SEQ ID NO: 1) was amplified and cloned into the NdeI and XhoI sites of vector OP-183 (pACYC derivative) under the control of the Ptrc promoter. The resulting construct was cotransformed with OP80-PCC7942—1594 into E. coli MG1655 and the cells were grown at 37° C. in M9 minimal media supplemented with 100 μg/ml spectinomycin and 100 μg/ml carbenicillin. The cells were cultured and extracted as in Example 3 and analyzed by GC-MS as described in Example 1. […]

| Molecule | conversion of fatty aldehydes into alkanes/alkenes [1] | conversion of fatty aldehydes provided by MSMEG—5739 to alkanes [2] | fatty aldehyde decarbonylase activity (alkane/alkene production) (E. coli MG1655) | use of acyl-CoA as substrate to produce fatty aldehydes ([1]; reductase coexpressed with a fatty aldehyde decarbonylase) | production of fatty aldehydes or fatty alcohols ([1]; reductase expressed alone in acyl-CoA-producing strain) |
| --- | --- | --- | --- | --- | --- |
| B1 | octadecenal was converted into heptadecene | – | – | – | – |
| B2 | – | converted fatty aldehydes provided by MSMEG—5739 to the corresponding alkanes | active fatty aldehyde decarbonylase | – | – |
| B3 | converted into pentadecene, pentadecane and heptadecene | converted fatty aldehydes provided by MSMEG—5739 to the corresponding alkanes | active fatty aldehyde decarbonylase | – | – |
| B4 | – | converted fatty aldehydes provided by MSMEG—5739 to the corresponding alkanes | active fatty aldehyde decarbonylase | – | – |
| B5 | – | converted fatty aldehydes provided by MSMEG—5739 to the corresponding alkanes | active fatty aldehyde decarbonylase | – | – |
| B6 | – | – | – | able to use acyl-CoA as a substrate | did not produce any fatty aldehydes or fatty alcohols |
| B7 | – | converted fatty aldehydes provided by MSMEG—5739 to the corresponding alkanes | active fatty aldehyde decarbonylase | – | – |
| B8 | – | converted fatty aldehydes provided by MSMEG—5739 to the corresponding alkanes | active fatty aldehyde decarbonylase | – | – |
